Measured values taken from US20220119540A1 (NANJING GENSCRIPT BIOTECH, published 2022).

What was measured:
[1] = target: OX40 on a functional cell line overexpressing OX40 (UniProt P43489); assay: cell-based or functional assay
[2] = target: T1, OX40 on a functional cell line overexpressing OX40 (UniProt P43489 29-277, limits assumed); assay: cell-based or functional assay
T1 sequence (looked up): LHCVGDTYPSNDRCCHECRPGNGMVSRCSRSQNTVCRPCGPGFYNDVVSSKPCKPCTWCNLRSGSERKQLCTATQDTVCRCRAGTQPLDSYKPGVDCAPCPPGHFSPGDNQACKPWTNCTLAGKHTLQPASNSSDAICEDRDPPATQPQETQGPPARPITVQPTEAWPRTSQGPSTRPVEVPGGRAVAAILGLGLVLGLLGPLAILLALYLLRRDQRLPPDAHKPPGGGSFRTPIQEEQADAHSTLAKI

[3] = target: T2, Recombinant human OX40-His protein (human, UniProt P43489 29-214, limits assumed); assay: SPR (Biacore 8K), OX40-HIS coupled to chip, antibody as analyte, 1:1 binding model
T2 construct: Recombinant antigen protein; also called recombinant human OX-40 protein; human OX-40 protein; not shown: His tag
T2 sequence (looked up): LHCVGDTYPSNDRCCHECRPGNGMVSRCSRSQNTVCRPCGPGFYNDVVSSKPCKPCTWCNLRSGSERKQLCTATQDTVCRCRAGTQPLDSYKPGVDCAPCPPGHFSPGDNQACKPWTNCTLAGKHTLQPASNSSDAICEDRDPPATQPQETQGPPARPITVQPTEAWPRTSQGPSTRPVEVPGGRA
Experimental: The chip surface was equilibrated with HBS-EP buffer at a flow rate of 10 μl/min for 5 min, and then a 1:1 mixture of “NHS+EDC” was injected at a flow rate of 10 μl/min for 100 sec to activate the chip. The antigen protein (OX40-HIS) diluted in 10 mM sodium acetate buffer was injected for about 180 sec at a flow rate of 10 μl/min for coupling, and finally ethanolamine was injected for 200 sec at a flow rate of 10 μl/min to block the surface.
Three pre-cycles were performed with the HBS-EP buffer as a sample to balance the chip to stabilize the baseline. A low concentration of antibody was injected at a flow rate of 30 μl/min for 200 sec, to allow the antigen to bind to the antibody, and then the buffer was injected at a flow rate of 30 μl/min for 400 sec for dissociation. 10 mM Gly-HCl pH2.0 was injected three times each for 30 sec at a flow rate of 30 μl/min for regeneration, to complete one cycle.
The antibody concentration was changed to carry out the cycle for measurement at a next gradient concentration until all gradient concentrations (2.5 nM, 5 nM, 10 nM, 20 nM, 40 nM, and […]) and the replicate (such as 20 nM) were tested. The experimental data was double subtracted (minus the background values of the control channel and zero concentration), and fitted to the “1:1 binding” model in the Biacore 8K evaluation software. Biacore 8K was used to determine the affinity of the antibody to the OX40-HIS recombinant protein.

[4] = target: T2, Recombinant human OX40-His protein; assay: ELISA, plate coated with recombinant human OX-40 protein, antibody titrated
Experimental: Recombinant human OX-40 protein and recombinant monkey OX-40 protein were respectively used to detect the cross-recognition ability of humanized monoclonal antibodies for human/monkey OX-40 protein.
The ELISA plate (Nunc) was coated with 100 μl/well of […] recombinant OX40-His protein in PBS at 4° C. overnight. The plate was washed with PBS-T (0.05% Tween) and blocked with 200 μl/well of PBST containing 1% BSA at 37° C. for 0.5 hr. Then the blocking buffer was discarded, 100 μl of 1000 ng/ml purified antibody was added to the first well, 3-fold serial dilutions were made, and a total of 11 test concentration gradients were given. Then the system was incubated for 1 hr at room temperature. The plate was washed three times with PBST and incubated with 100 μl/well of horseradish peroxidase-conjugated goat anti-human Fab fragment-IgG (Fab-specific) (GenScript) at 37° C. for 0.5 hr. The plate was washed 5 times with PBST, and then a TMB developing solution (GenScript) was added and incubated at room temperature for 15 min in the dark. The reaction was terminated by adding 50 μl of 1 M HCl stop solution (Sigma). The plate was read at 450 nm on a microplate reader.

[5] = target: T3, Recombinant monkey OX-40 protein (monkey); assay: ELISA, plate coated with recombinant monkey OX-40 protein, antibody titrated
T3 chain: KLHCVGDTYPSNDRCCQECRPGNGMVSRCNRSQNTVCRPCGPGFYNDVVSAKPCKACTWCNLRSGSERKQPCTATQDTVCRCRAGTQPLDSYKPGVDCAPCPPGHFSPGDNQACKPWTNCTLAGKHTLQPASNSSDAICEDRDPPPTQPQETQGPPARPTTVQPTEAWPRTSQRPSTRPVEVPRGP

[6] = target: T2, Recombinant human OX40-His protein; assay: kinetic ranking (RU, 1:1 binding model), antibody product as ligand, OX40-His as analyte

OX40 ligand (from UniProt P23510 51-183)
IL-8 secretion by OX40 overexpressing functional cell line, EC50 [1]: 2.54 nM | IL-8 secretion by OX40 overexpressing functional cell line, best-fit value Bottom [1]: 4130 | IL-8 secretion by OX40 overexpressing functional cell line, best-fit value LogEC50 [1]: 0.404 | IL-8 secretion by OX40 overexpressing functional cell line, best-fit value Top [1]: 19900

B1: AH02923 humanized anti-human OX40 monoclonal antibody (recombinant human IgG1/kappa) (antibody, V domains shown)
VH: QVQLVQSGAEVKKPGASVKVSCKASGYTFTDYSMHWVRQAPGQGLEWMGWISTETGEPTYADDFKGRFTFTLDTSASTAYLELSSLRSEDTAVYYCARVRPWYLAVWGQGTLVTVSS
VL: DIQMTQSPSSLSASVGDRVTITCRASQDISNYLNWYQQKPGKAVKLLIYYTSRLYSGVPSRFSGSGSGTDYTFTISSLQPEDIATYYCQQANTLPLTFGGGTKLEIK
IL-8 secretion by OX40 overexpressing functional cell line, EC50 [2]: 1.55 nM | IL-8 secretion by OX40 overexpressing functional cell line, best-fit value Bottom [2]: 3350 | IL-8 secretion by OX40 overexpressing functional cell line, best-fit value LogEC50 [2]: 0.191 | IL-8 secretion by OX40 overexpressing functional cell line, best-fit value Top [2]: 21000 | Kd [3]: 2.15 nM | koff [3]: 0.000616 s⁻¹ | kon [3]: 287000 M⁻¹ s⁻¹ | EC50 [4]: 0.0107 µg/mL | EC50 [5]: 0.0303 µg/mL

B2: Chimeric antibody, as ranked with the prokaryotically expressed antibody products (back-mutation screening) (Fab, V domains shown)
VH: QIQLVQSGPELKKPGETVKISCKASGYTFTDYSMHWVKQAPGKGLKWMGWISTETGEPTYADDFKGRFAFSLETSASTAYLQIKNLKNEDTASYFCARVRPWYLAVWGAGTTVTVSS
VL: DIQMTQTTSSLSASLGDRVTISCRASQDISNYLNWYQQKPDGTVKLLIYYTSRLYSGVPSRFSGSGSGADYSLTVSNLEQEDIATYFCQQANTLPLTFGAGTKLELK
Kd [6]: 11.2 nM | koff [6]: 0.00487 s⁻¹ | kon [6]: 434000 M⁻¹ s⁻¹
